The target of one assay is GST-Sed5H1 (yeast) (UniProt Q01590). Briefly: pull-down.
The next assay addresses GST-Sed5H1 + 2 (yeast) (UniProt Q01590). Briefly: pull-down.
The next assay addresses GST-Sed5H2 (yeast) (UniProt Q01590). Briefly: pull-down.
For assay [1], the target named is yeast COG complex (purified from TAP-yCog2 cells) (yeast, UniProt P53079;P53271;P40094;Q06096;P53951;P53959;P53195;Q04632). The assay is described as follows: pull-down.
In assay [2] the target is rat Cog3p (rat (endogenous in rat liver Golgi membranes)). Briefly: co-IP.

With “yeast COG complex (purified from TAP-yCog2 cells), P53079;P53271;P40094;Q06096;P53951;P53959;P53195;Q04632”, the fold less efficient binding than to the cytosolic portion of Sed5p and Sed5H3 in the assay with GST-Sed5H1 (yeast), in the assay with GST-Sed5H1 + 2 (yeast) and with GST-Sed5H2 (yeast) was 4 fold each time.

B1: GST-Sed5p, cytosolic portion (domain or fragment)
chain: MNIKDRTSEFQQSVLSYKKRNKNFREQQRERLQEKESENFANNTTGNGKSVSEFQKKASGIAHEISSTAQLLSKLAVLAKRKPMFNDNPVEIAELSFLIKRKIYAIEQSLVQLSQLKKTDVNGNTSNQSSKQPSAVQHSKNVVNLLNTQMKNISGSFKDVLEERQRLEMANKDRWQKLTTDTGHAPADDQTQSNHAADLTTYNNSNPFMTSLLDESSEKNNNSSNQGELSFPQNDSQLMLMEEGQLSNNVYLQERNRAVETIESTIQEVGNLFQQLASMVQEQGEVIQRIDANVDDIDLNISGAQRELLKYFDRIKSNR
As for B1, the binding result in assay [1] is “binds”.

B2: vesicle-tethering factor p115 (rat liver Golgi) (natural protein)
chain: MNFLRGVMGGQSAGPQHTEAETIQKLCDRVASSTLLDDRRNAVRALKSLSKKYRLEVGIQAMEHLIHVLQTDRSDSEIIAYALDTLYNIISNDEEEEVEENSTRQSEDLGSQFTEIFIKQPENVTLLLSLLEEFDFHVRWPGVRLLTSLLKQLGPPVQQIILVSPMGVSKLMDLLADSREIIRNDGVLLLQALTRSNGAIQKIVAFENAFERLLDIITEEGNSDGGIVVEDCLILLQNLLKNNNSNQNFFKEGSYIQRMKAWFEVGDENPGWSAQKVTNLHLMLQLVRVLVSPTNPPGATSSCQKAMFQCGLLQQLCTILMATGIPADILTETINTVSEVIRGCQVNQDYFASVNAPSNPPRPAIVVLLMSMVNERQPFVLRCAVLYCFQCFLYKNEKGQGEIVATLLPSTIDATGNSVSAGQLLCGGLFSTDSLSNWCAAVALAHALQGNATQKEQLLRVQLATSIGNPPVSLLQQCTNILSQGSKIQTRVGLLMLLCTWLSNCPIAVTHFLHNSANVPFLTGQIAENLGEEEQLVQGLCALLLGISIYFNDNSLENYTKEKLKQLIEKRIGKENYIEKLGFISKHELYSRASQKPQPNFPSPEYMIFDHEFTKLVKELEGVITKAIYKSSEEDKKEEEVKKTLEQHDNIVTHYKNMIREQDLQLEELKQQVSTLKCQNEQLQTAVTQQASQIQQHKDQYNLLKVQLGKDNHHQGSHSDGAQVNGIQPEEISRLREEIEELRSHQVLLQSQLAEKDTVIENLRSSQVSGMSEQALATCSPRDAEQVAELKQELSALKSQLCSQSLEITRLQTENSELQQRAETLAKSVPVEGESELVTAAKTTDVEGRLSALLQETKELKNEIKALSEERTAIQKQLDSSNSTIAILQTEKDKLYLEVTDSKKEQDDLLVLLADQDQKILSLKSKLKDLGHPVEEEDESGDQEDDDDELDDGDRDQDI
Consider B2, for which, in assay [2], the percent coimmunoprecipitated came to 4%.

B3: GS28 (rat liver Golgi) (natural protein)
chain: MAAGTSNYWEDLRKQARQLENELDLKLVSFSKLCTSYSHSSARDGGRDRYSSDTTPLLNGSSQDRMFETMAIEIEQLLARLTGVNDKMAEYTHSAGVPSLNAALMHTLQRHRDILQDYTHEFHKTKANFMAIRERENLMGSVRKDIESYKSGSGVNNRRTELFLKEHDHLRNSDRLIEETISIAMATKENMTSQRGMLKSIHSKMNTLANRFPAVNSLIQRINLRKRRDSLILGGVIGICTILLLLYAFH
In assay [2], B3 came in with a percent coimmunoprecipitated below 4%.

B4: GST-Sed5H3 (SNARE domain of Sed5p) (domain or fragment)
chain: FMTSLLDESSEKNNNSSNQGELSFPQNDSQLMLMEEGQLSNNVYLQERNRAVETIESTIQEVGNLFQQLASMVQEQGEVIQRIDANVDDIDLNISGAQRELLKYFDRIKSNRWLAAK
As to B4, in assay [1], the binding result is on record as “binds”.

B5: Syntaxin5a (rat liver Golgi) (natural protein)
chain: MSCRDRTQEFLSACKSLQSRQNGIQTNKPALHATRQCSEFTLMARRIGKDLSNTFAKLEKLTILAKRKSLFDDKAVEIEELTYIIKQDINSLNKQIAQLQDFVRAKGSQSGRHLQTHSNTIVVSLQSKLASMSNDFKSVLEVRTENLKQQRNRREQFSRAPVSALPLAPNNLGGGPIVLGGESRASRDVAIDMMDPRTSQQLQLIDEQDSYIQSRADTMQNIESTIVELGSIFQQLAHMVKEQEETIQRIDENVLGAQLDVEAAHSEILKYFQSVTSNRWLMVKIFLILIVFFIIFVVFLA
In assay [2], B5 registered a percent coimmunoprecipitated below 4%.

B6: Golgi matrix protein GM130 (rat liver Golgi) (natural protein)
chain: MWPPRFPPPRPGMSEETRQSKLAAAKKKLREYQQKNSPGVPAGAKKKKKIKNGHSPERTSASDCQSAENVPTDHTAPAPPSTAAATMFLGVVPSPDADLIQSHDAGNCSNLMEETKTFSSTESLRQLSQQLNGLVSESTSYINGEGLTSSNMKELESRYQELAVALDSSYVTNKQLSSTIEELKQQNQDTLDQLEKEKKDYQQKLAKEQGALREQLQVHIQTIGILVSEKAELQTALAHTQQAARQKAGESEDLASRLQSSRQRVGELERTLSTVSTQQKQADRYNKDLTKERDALKLELYKNGKSNEDLRQQNSELEEKLRVLVAEKAAAQLGAEELQKKLEMSELLLQQFSSQSEASGSNEQLQQAMEERAQLESHVGQLMESLKQLQVERDQYAENLKGESAMWQQRVQQMAEQVHALKEEKEQRESQVQELEASLAELRSQMEEPPPPEPPTGPSEAEERLQGEVEQLQKELEGLTGQLRAQVQDNESLSHLNREQEGRLLELEREAQHWSEQAEERKQILESMQSDRTTISRALSQNRELKEQLAELQNGFVRLTNENMEITSALQSEQHVKKELARKLGELQERLGELKETVELKSQEAQGLQEQRDQCLSHLQQYAAAYQQHLTAYEQLTSEKEALHKQLLLQTQLMDQLQHEEVQGKMAAEMARQELQEAQERLKASSQENQQLQAQLSLLVLPGEDMDQEEQDEEVPQPSLTIPEDLVSREAMVAFCNAAIARAEEEQARLRVQLREQKARCRSLAHLAAPVQSKLEKEAVVPRDMGDSVSEESNQALHVAMEKLQNRFLEVMQEKVELKERVEELEHCCIQLSGETDTIGEYIALYQNQRAVLKARHLEKEEYISRLAQDKEEMKVKLLELQELVLRLVNERNEWQGKFLAVSQNPADVPAPVPTGSQEFGAADQQGDLREVSLADDTEPAQGEAGVPAPQENPTAQQIMQLLREIQNPQERPGLGSNPCIPFFYRADENDEVKIMVI
Consider B6, for which the percent coimmunoprecipitated in assay [2] is 10%.

Source of the values: PMC2140037 (The Journal of Cell Biology, 2007).
